What was measured:
[1] = target: SyB-Cph1(GAF-PHY) Arg133-Ala mutant (Synechococcus sp. JA-2-3B'a(2-13)); experiment: SEC; arginine-to-alanine mutants; data not shown
[2] = target: SyB-Cph1(GAF-PHY) Arg111-Ala mutant (Synechococcus sp. JA-2-3B'a(2-13)); experiment: SEC; arginine-to-alanine mutants; data not shown
[3] = target: SyB-Cph1(GAF-PHY) Arg101-Ala mutant (Synechococcus sp. JA-2-3B'a(2-13)); experiment: SEC; arginine-to-alanine mutants; data not shown
[4] = target: SyB-Cph1(GAF-PHY), the GAF-PHY fragment (photo-sensing module) of the PAS-less phytochrome SyB-Cph1, residues 1-421, assembled with phycocyanobilin, as Pr (Synechococcus sp. JA-2-3B'a(2-13)); experiment: SEC; Pr in darkness, 30 mM Tris-HCl (pH 8.0), Superdex 200 Increase 10/300 GL, 0.5 ml/min, gel filtration mass standards

SyB-Cph1(GAF-PHY) Arg133-Ala mutant (domain or fragment)
stoichiometry N [1]: 2

SyB-Cph1(GAF-PHY) Arg111-Ala mutant (domain or fragment)
stoichiometry N [2]: 2

SyB-Cph1(GAF-PHY) Arg101-Ala mutant (domain or fragment)
stoichiometry N [3]: 2

SyB-Cph1(GAF-PHY), the GAF-PHY fragment (photo-sensing module) of the PAS-less phytochrome SyB-Cph1, residues 1-421, assembled with phycocyanobilin, as Pr (domain or fragment)
stoichiometry N [4]: 2
